Laboratory results from US10562947B2, “Compositions and methods for preventing or treating diseases, conditions or processes characterized by aberrant fibroblast proliferation and extracellular matrix deposition” (MOERAE MATRIX, INC., priority 2011, dated 2020).

Columns and labels:
Assay in all cases: Kinase Profiling Assay
Type in all cases: biochemical
Settings in all cases: 100 μM peptide
Aurora-A(h) = target: T1, Aurora-A(h) (Homo sapiens, UniProt O14965)
T1 sequence (O14965 1-403): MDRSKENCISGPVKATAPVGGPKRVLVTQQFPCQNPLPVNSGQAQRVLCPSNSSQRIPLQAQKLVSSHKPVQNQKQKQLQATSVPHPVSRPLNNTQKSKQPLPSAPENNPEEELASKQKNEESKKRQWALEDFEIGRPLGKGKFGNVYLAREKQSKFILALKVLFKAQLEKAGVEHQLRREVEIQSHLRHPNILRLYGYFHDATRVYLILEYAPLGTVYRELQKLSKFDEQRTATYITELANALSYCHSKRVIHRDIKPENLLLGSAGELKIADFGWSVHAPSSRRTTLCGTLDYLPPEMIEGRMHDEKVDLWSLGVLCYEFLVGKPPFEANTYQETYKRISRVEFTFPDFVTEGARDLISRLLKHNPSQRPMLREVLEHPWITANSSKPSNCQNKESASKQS
How it was run: (§1)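 Duplicate activity readings per kinase; peptide inhibitors of MK2 profiled against 266 human kinases for selectivity.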

Abl(M351T)(h) = Abl(M351T)(h) (Homo sapiens, UniProt P00519, M351T)
How it was run: as §1

PDGFRα(D842V)(h) = PDGFRα(D842V)(h) (Homo sapiens, UniProt P16234, D842V)
How it was run: as §1

PAR-1Bα(h) = PAR-1Bα(h) (Homo sapiens, UniProt Q7KZI7)
How it was run: as §1

JAK3(h) = target: T2, JAK3(h) (Homo sapiens, UniProt P52333)
T2 construct: purchased Millipore
T2 sequence (P52333 1-1124): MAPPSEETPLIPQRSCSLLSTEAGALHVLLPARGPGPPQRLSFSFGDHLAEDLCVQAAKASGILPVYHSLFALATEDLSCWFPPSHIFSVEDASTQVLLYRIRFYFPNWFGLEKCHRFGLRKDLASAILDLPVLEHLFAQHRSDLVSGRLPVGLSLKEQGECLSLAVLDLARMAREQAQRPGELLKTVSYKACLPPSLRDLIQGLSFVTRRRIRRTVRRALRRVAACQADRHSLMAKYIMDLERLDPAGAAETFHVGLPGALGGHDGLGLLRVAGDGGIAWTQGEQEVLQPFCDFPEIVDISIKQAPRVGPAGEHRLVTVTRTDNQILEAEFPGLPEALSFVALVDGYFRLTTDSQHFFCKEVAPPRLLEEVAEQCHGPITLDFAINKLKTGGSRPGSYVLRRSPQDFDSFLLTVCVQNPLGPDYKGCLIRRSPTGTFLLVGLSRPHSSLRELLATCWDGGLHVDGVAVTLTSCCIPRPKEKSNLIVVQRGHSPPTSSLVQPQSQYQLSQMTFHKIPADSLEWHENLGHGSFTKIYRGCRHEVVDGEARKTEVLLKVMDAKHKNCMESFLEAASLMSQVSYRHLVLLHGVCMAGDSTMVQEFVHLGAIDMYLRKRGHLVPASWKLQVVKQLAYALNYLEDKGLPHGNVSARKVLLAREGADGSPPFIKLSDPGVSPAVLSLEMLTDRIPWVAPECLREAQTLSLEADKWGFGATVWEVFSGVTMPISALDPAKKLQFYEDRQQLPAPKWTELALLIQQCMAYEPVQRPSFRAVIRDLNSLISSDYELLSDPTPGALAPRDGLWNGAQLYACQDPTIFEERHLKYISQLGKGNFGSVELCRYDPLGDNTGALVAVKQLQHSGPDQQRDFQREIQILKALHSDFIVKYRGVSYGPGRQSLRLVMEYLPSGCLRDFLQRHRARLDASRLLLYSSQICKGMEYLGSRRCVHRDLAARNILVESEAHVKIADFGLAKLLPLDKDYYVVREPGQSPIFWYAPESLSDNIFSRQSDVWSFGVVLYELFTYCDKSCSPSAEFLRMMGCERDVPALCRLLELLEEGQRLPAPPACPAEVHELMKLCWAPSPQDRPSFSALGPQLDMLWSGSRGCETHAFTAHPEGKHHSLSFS
How it was run: as §1

MRCKα(h) = MRCKα(h) (Homo sapiens, UniProt Q5VT25)
How it was run: as §1

Lck(h) = Lck(h) (Homo sapiens, UniProt P06239)
How it was run: as §1

Snk(h) = Snk(h) (Homo sapiens, UniProt Q9NYY3)
How it was run: as §1

EGFR(T790M)(h) = EGFR(T790M)(h) (Homo sapiens, UniProt P00533, T790M)
How it was run: as §1

CK2α2(h) = CK2α2(h) (Homo sapiens, UniProt P19784)
How it was run: as §1

IGF-1R(h) = target: T3, IGF-1R(h) (Homo sapiens, UniProt P08069)
T3 construct: purchased Millipore
How it was run: as §1

MAPK1(h) = MAPK1(h) (Homo sapiens, UniProt P27361)
How it was run: as §1

JNK1α1(h) = target: T4, JNK1α1(h) (Homo sapiens, UniProt P45983)
T4 construct: purchased Millipore
How it was run: as §1

PAK3(h) = PAK3(h) (Homo sapiens, UniProt O75914)
How it was run: as §1

CK1γ3(h) = CK1γ3(h) (Homo sapiens, UniProt Q9Y6M4)
How it was run: as §1

Sequence of PDGFRα(D842V)(h) (P16234 24-1089 D842V): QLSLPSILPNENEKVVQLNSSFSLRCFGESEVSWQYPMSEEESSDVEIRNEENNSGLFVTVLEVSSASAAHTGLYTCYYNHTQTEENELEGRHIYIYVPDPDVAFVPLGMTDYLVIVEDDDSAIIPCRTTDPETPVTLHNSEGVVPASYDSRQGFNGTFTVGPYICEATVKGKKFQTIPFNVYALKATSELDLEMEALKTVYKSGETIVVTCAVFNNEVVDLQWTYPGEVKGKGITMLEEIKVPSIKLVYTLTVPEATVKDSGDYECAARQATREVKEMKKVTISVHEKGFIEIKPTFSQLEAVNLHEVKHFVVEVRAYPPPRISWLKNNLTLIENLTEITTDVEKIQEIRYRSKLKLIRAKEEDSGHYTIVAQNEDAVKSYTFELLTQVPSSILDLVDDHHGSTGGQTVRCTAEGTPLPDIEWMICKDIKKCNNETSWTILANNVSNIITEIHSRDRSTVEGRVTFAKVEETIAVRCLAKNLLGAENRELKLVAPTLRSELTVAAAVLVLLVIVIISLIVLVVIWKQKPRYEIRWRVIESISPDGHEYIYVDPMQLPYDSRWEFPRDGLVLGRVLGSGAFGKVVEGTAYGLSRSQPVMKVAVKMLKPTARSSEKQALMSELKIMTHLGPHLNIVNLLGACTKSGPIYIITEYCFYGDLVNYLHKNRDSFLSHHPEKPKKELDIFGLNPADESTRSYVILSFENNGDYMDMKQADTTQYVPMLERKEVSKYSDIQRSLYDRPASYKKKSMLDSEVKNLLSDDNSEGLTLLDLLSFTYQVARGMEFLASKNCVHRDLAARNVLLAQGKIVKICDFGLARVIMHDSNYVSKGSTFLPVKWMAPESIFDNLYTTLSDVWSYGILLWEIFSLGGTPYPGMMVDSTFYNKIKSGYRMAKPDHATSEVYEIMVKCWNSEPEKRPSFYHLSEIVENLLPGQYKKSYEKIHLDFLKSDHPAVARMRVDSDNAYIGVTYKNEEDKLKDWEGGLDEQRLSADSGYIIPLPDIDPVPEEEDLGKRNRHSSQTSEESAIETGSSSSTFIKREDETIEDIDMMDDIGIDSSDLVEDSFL
Sequence of MRCKα(h) (Q5VT25 whole entry): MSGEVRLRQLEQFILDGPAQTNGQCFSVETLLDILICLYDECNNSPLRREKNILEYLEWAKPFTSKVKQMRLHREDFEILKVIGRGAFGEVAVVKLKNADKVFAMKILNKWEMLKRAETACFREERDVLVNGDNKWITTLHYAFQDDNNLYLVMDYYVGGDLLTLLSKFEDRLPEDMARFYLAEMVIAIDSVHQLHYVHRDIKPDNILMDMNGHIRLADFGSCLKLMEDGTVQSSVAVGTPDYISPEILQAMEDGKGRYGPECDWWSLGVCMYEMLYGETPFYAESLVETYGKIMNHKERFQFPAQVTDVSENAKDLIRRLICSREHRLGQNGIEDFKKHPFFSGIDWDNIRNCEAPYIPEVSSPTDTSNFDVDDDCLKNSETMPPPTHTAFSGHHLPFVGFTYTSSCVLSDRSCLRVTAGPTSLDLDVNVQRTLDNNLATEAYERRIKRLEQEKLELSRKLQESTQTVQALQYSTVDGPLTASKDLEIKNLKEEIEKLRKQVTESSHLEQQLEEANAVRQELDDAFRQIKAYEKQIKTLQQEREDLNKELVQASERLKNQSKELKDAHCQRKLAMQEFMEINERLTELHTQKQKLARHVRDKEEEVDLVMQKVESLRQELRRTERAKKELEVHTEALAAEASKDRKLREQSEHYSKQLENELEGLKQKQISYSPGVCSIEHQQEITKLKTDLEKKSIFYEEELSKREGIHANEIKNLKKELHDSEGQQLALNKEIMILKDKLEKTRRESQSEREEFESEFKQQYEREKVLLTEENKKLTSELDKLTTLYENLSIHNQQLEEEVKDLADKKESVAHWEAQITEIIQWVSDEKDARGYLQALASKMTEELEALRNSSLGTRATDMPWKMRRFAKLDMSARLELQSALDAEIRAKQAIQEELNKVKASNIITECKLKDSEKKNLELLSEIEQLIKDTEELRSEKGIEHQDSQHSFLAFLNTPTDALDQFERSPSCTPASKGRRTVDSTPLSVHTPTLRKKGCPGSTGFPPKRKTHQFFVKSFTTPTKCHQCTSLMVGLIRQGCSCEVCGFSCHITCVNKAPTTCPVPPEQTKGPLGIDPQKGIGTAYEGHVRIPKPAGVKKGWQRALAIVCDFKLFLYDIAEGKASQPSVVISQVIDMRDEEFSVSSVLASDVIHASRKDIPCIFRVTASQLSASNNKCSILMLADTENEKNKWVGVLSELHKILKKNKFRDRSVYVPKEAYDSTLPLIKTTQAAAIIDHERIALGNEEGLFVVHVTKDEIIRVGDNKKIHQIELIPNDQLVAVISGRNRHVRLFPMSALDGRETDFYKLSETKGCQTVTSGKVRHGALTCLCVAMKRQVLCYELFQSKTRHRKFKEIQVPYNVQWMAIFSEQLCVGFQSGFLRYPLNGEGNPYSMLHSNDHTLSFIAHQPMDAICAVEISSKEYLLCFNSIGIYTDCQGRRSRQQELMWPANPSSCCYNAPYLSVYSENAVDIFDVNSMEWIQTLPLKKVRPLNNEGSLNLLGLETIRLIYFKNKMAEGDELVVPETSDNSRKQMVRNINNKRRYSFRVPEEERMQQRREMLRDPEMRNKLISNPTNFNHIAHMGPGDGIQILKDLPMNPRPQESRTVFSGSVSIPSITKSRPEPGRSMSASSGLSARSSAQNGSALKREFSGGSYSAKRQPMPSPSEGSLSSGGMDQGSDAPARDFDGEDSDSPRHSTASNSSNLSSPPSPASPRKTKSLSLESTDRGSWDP
Sequence of CK2α2(h) (P19784 whole entry): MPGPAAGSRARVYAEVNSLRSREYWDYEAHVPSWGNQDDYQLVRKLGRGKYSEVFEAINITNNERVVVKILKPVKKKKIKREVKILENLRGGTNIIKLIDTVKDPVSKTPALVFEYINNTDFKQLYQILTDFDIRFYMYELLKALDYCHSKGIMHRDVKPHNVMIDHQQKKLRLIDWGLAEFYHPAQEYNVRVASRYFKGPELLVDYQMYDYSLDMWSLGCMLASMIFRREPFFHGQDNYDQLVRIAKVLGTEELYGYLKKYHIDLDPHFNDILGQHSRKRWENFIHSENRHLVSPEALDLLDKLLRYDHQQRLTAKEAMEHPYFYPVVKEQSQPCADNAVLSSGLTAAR
T4 sequence (P45983 1-384 isoform P45983-2): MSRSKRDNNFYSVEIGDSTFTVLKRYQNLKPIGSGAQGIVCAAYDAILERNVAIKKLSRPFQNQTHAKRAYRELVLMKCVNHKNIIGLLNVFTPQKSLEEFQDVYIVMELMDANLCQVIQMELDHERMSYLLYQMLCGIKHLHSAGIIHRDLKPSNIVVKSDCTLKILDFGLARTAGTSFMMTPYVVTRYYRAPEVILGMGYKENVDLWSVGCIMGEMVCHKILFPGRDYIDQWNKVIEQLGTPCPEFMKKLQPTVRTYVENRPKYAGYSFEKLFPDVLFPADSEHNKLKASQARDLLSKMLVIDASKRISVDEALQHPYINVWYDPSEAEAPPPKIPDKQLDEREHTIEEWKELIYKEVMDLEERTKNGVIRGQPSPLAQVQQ
Sequence of Snk(h) (Q9NYY3 whole entry): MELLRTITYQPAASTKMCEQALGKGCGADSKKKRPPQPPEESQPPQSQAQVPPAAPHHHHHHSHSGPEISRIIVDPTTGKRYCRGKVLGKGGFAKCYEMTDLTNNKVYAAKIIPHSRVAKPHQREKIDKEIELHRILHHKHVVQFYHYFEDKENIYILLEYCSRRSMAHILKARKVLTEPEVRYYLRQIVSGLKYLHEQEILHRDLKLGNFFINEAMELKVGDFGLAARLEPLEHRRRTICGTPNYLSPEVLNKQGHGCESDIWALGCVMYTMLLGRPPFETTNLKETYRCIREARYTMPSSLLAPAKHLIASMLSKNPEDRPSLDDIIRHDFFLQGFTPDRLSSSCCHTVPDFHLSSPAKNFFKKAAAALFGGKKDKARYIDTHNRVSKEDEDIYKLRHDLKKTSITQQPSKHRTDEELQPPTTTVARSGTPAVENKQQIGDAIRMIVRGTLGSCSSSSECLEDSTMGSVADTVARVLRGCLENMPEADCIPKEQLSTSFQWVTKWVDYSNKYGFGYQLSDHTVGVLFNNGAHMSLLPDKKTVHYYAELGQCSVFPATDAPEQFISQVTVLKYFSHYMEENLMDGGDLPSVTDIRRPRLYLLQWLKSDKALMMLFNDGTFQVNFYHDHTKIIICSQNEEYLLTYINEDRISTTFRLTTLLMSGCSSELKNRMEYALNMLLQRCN
Sequence of PAK3(h) (O75914 whole entry): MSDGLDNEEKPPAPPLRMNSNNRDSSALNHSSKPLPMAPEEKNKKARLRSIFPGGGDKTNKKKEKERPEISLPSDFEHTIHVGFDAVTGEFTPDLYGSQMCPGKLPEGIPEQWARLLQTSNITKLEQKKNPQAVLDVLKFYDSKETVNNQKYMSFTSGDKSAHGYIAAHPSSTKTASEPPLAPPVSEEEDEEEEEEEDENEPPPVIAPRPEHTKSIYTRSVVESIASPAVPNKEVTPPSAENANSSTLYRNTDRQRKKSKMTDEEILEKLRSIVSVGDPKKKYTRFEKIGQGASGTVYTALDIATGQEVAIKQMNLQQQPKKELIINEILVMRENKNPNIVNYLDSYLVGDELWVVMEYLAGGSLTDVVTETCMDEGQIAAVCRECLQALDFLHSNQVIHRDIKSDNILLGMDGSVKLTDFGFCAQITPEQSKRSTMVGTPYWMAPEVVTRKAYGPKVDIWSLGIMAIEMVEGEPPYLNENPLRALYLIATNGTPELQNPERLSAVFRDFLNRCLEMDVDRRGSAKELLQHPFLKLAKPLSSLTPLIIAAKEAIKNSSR

**Q.** Which “Aurora-A(h) % activity” value (Aurora-A(h)) does the source give for “HRRIKAWLKKIKALARQLGVAA (Mammalian) [MMI-0500]” here?
**A.** 110%

**Q.** What about the “Abl(M351T)(h) % activity” value (Abl(M351T)(h)) of the same sequence?
**A.** 61%

**Q.** And the “PDGFRα(D842V)(h) % activity” value (PDGFRα(D842V)(h))?
**A.** 170%

**Q.** What about the “PAR-1Bα(h) % activity” value (PAR-1Bα(h)) of the same sequence?
**A.** 97%

**Q.** And the “JAK3(h) % activity” value (JAK3(h))?
**A.** 95%

**Q.** What about the “MRCKα(h) % activity” value (MRCKα(h)) of the same sequence?
**A.** 5%

**Q.** What about the “Lck(h) % activity” value (Lck(h)) of the same sequence?
**A.** 359%

**Q.** What about the “Snk(h) % activity” value (Snk(h)) of the same sequence?
**A.** 122%

**Q.** And the “EGFR(T790M)(h) % activity” value (EGFR(T790M)(h))?
**A.** 70%

**Q.** What does the source list for KAFAKLAARLYRKALARQLGVAA [MMI-0400]?
**A.** PDGFRα(D842V)(h) % activity (PDGFRα(D842V)(h)): 118%; CK2α2(h) % activity (CK2α2(h)): 96%; JAK3(h) % activity (JAK3(h)): 122%; MRCKα(h) % activity (MRCKα(h)): 97%; IGF-1R(h) % activity (IGF-1R(h)): 90%; Snk(h) % activity (Snk(h)): 131%; MAPK1(h) % activity (MAPK1(h)): 100%; JNK1α1(h) % activity (JNK1α1(h)): 98%

**Q.** What does the source list for FAKLAARLYRKALARQLGVAA [MMI-0300]?
**A.** Aurora-A(h) % activity (Aurora-A(h)): 92%; PAK3(h) % activity (PAK3(h)): 140%; Abl(M351T)(h) % activity (Abl(M351T)(h)): 90%; Lck(h) % activity (Lck(h)): −2%; CK1γ3(h) % activity (CK1γ3(h)): 125%; EGFR(T790M)(h) % activity (EGFR(T790M)(h)): 100%; JNK1α1(h) % activity (JNK1α1(h)): 97%

**Q.** Which results are given for “YARAAARQARAKALNRQLGVA (Mammalian) [MMI-0200]”?
**A.** PAK3(h) % activity (PAK3(h)): 50%; CK2α2(h) % activity (CK2α2(h)): 88%; PAR-1Bα(h) % activity (PAR-1Bα(h)): 110%; IGF-1R(h) % activity (IGF-1R(h)): 49%; CK1γ3(h) % activity (CK1γ3(h)): 96%; MAPK1(h) % activity (MAPK1(h)): 97%
